Measurements taken from patent US20170290876A1 (Novartis, published 2017).
Residue numbers refer to the chain shown, from its start. Names and notes keep the numbering of the source. Each block holds one binder with its values, some of them ahead of it.

Biological target: T1, human VEGF (human, UniProt P15692 207-395, biotinylated (site not stated))
T1 construct: Biotinylated human VEGF generated internally; also called hVEGF; hVEGF-biotin
T1 sequence: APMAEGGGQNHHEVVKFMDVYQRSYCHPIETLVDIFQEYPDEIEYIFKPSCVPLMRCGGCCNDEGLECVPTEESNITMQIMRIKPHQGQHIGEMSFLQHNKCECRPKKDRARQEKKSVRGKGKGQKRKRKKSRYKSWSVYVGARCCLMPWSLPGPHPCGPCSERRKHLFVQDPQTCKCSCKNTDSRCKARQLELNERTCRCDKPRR
Assay: Biacore SPR, hVEGF

B2: HC1.1T (Fab, V domains shown)
VH: EVQLVESGGGLVQPGGSLRLSCTASGFSLTSYYYMTWVRQAPGKGLEWVGFIDPQNNPYYATWAKGRFTISRDNSKNTLYLQMNSLRAEDTAVYYCAGGDHNSGWGLNIWGQGTLVTVSS
VL: EIVMTQSPSTLSASVGDRVIITCQASEIIHSWLAWYQQKPGKAPKLLIYLASTLASGVPSRFSGSGSGAEFTLTISSLQPDDFATYYCQNVYLASTNGANFGQGTKLTVLK
notes: Tagged heavy chain CDR variant HC1.1 with NVS4 light chain
Kd: 0.0779 nM
koff: 0.00854 s⁻¹
kon: 1.1e+08 M⁻¹ s⁻¹

B3: NVS4 heavy chain variant Y59H (Fab, V domains shown)
VH: B2 VH with S31D, Q55D, N56D, N57D, Y59H, N108D
VL: B2 VL
notes: CDR variant of NVS4
Kd: 0.0563 nM
koff: 0.000119 s⁻¹
kon: 2.11e+06 M⁻¹ s⁻¹

B4: NVS4 heavy chain variant D57N (Fab, V domains shown)
VH: B2 VH with S31D, Q55D, N56D, N108D
VL: B2 VL
notes: CDR variant of NVS4
Kd: 0.132 nM
koff: 0.0014 s⁻¹
kon: 1.06e+07 M⁻¹ s⁻¹

B5: NVS4 heavy chain variant N102K (Fab, V domains shown)
VH: B2 VH with S31D, Q55D, N56D, N57D, N102K, N108D
VL: B2 VL
notes: CDR variant of NVS4
Kd: 0.0169 nM
koff: 4.84e-05 s⁻¹
kon: 4.77e+06 M⁻¹ s⁻¹

B6: HC1.2T (Fab, V domains shown)
VH: B2 VH with N108D
VL: B2 VL
notes: Tagged heavy chain CDR variant HC1.2 with NVS4 light chain
Kd: 0.0414 nM
koff: 0.00456 s⁻¹
kon: 1.1e+08 M⁻¹ s⁻¹

B8: NVS4 light chain variant Y92F (Fab, V domains shown)
VH: B2 VH with S31D, Q55D, N56D, N57D, N108D
VL: B2 VL with Y92F
notes: CDR variant of NVS4
Kd: 0.0415 nM
koff: 7.84e-05 s⁻¹
kon: 1.89e+06 M⁻¹ s⁻¹

B10: NVS4 heavy chain variant D55N (Fab, V domains shown)
VH: B2 VH with S31D, Q55N, N56D, N57D, N108D
VL: B2 VL
notes: CDR variant of NVS4
Kd: 0.103 nM
koff: 0.000654 s⁻¹
kon: 6.35e+06 M⁻¹ s⁻¹

B11: NVS4 light chain variant S95K (Fab, V domains shown)
VH: B2 VH with S31D, Q55D, N56D, N57D, N108D
VL: B2 VL with S95K
notes: CDR variant of NVS4
Kd: 0.0819 nM
koff: 0.000482 s⁻¹
kon: 5.88e+06 M⁻¹ s⁻¹

B12: NVS4 heavy chain variant D55Q + D56N (Fab, V domains shown)
VH: B2 VH with S31D, N57D, N108D
VL: B2 VL
notes: CDR variant of NVS4
Kd: 0.0909 nM
koff: 0.000656 s⁻¹
kon: 7.22e+06 M⁻¹ s⁻¹

B14: NVS4 heavy chain variant D55Q (Fab, V domains shown)
VH: B2 VH with S31D, N56D, N57D, N108D
VL: B2 VL
notes: CDR variant of NVS4
Kd: 0.0823 nM
koff: 0.000541 s⁻¹
kon: 6.57e+06 M⁻¹ s⁻¹

B16: NVS4 heavy chain variant Y59F (Fab, V domains shown)
VH: B2 VH with S31D, Q55D, N56D, N57D, Y59F, N108D
VL: B2 VL
notes: CDR variant of NVS4
Kd: 0.0311 nM
koff: 0.000104 s⁻¹
kon: 3.34e+06 M⁻¹ s⁻¹

B17: NVS4 light chain variant H30K (Fab, V domains shown)
VH: B2 VH with S31D, Q55D, N56D, N57D, N108D
VL: B2 VL with H30K
notes: CDR variant of NVS4
Kd: 0.0355 nM
koff: 0.000149 s⁻¹
kon: 4.22e+06 M⁻¹ s⁻¹

B19: NVS4 heavy chain variant D55N + D56N (Fab, V domains shown)
VH: B2 VH with S31D, Q55N, N57D, N108D
VL: B2 VL
notes: CDR variant of NVS4
Kd: 0.108 nM
koff: 0.000951 s⁻¹
kon: 8.82e+06 M⁻¹ s⁻¹

B21: HC1T (Fab, V domains shown)
VH: B2 VH with D100S
VL: B2 VL
notes: Tagged heavy chain CDR variant HC1 with NVS4 light chain
Kd: 0.0883 nM
koff: 0.00852 s⁻¹
kon: 9.65e+07 M⁻¹ s⁻¹

B24: NVS4 heavy chain variant Y34H (Fab, V domains shown)
VH: B2 VH with S31D, Y34H, Q55D, N56D, N57D, N108D
VL: B2 VL
notes: CDR variant of NVS4
Kd: 0.15 nM
koff: 0.000445 s⁻¹
kon: 2.97e+06 M⁻¹ s⁻¹

B25: NVS4 heavy chain variant D31S + Y32K (Fab, V domains shown)
VH: B2 VH with Y32K, Q55D, N56D, N57D, N108D
VL: B2 VL
notes: CDR variant of NVS4
Kd: 0.185 nM
koff: 0.000958 s⁻¹
kon: 5.18e+06 M⁻¹ s⁻¹

B26: HC2T (Fab, V domains shown)
VH: B2 VH with S31N, N57D, D100N, N108D
VL: B2 VL
notes: Tagged heavy chain CDR variant HC2 with NVS4 light chain
Kd: 0.0111 nM
koff: 0.000862 s⁻¹
kon: 7.8e+07 M⁻¹ s⁻¹

B27: NVS4 heavy chain variant D100N + H101K (Fab, V domains shown)
VH: B2 VH with S31D, Q55D, N56D, N57D, D100N, H101K, N108D
VL: B2 VL
notes: CDR variant of NVS4
Kd: 0.368 nM
koff: 0.000363 s⁻¹
kon: 983000 M⁻¹ s⁻¹

B28: NVS4 heavy chain variant H101K (Fab, V domains shown)
VH: B2 VH with S31D, Q55D, N56D, N57D, H101K, N108D
VL: B2 VL
notes: CDR variant of NVS4
Kd: 0.593 nM
koff: 0.000773 s⁻¹
kon: 1.3e+06 M⁻¹ s⁻¹

These reach a lower Kd. Values come first.

Kd: 0.00409 nM
koff: 4.7e-05 s⁻¹
kon: 1.15e+07 M⁻¹ s⁻¹
B1: NVS4 heavy chain variant D31N (Fab, V domains shown)
VH: B2 VH with S31N, Q55D, N56D, N57D, N108D
VL: B2 VL
notes: CDR variant of NVS4

Kd: 0.00549 nM
koff: 2.57e-05 s⁻¹
kon: 4.68e+06 M⁻¹ s⁻¹
B7: NVS4 heavy chain variant D100N (Fab, V domains shown)
VH: B2 VH with S31D, Q55D, N56D, N57D, D100N, N108D
VL: B2 VL
notes: CDR variant of NVS4

Kd: 0.00886 nM
koff: 4.67e-05 s⁻¹
kon: 5.27e+06 M⁻¹ s⁻¹
B9: NVS4 heavy chain variant D31S (Fab, V domains shown)
VH: B2 VH with Q55D, N56D, N57D, N108D
VL: B2 VL
notes: CDR variant of NVS4

Kd: 0.00534 nM
koff: 3e-05 s⁻¹
kon: 5.62e+06 M⁻¹ s⁻¹
B13: NVS4 light chain variant I28K (Fab, V domains shown)
VH: B2 VH with S31D, Q55D, N56D, N57D, N108D
VL: B2 VL with I28K
notes: CDR variant of NVS4

Kd: 0.00985 nM
koff: 5.73e-05 s⁻¹
kon: 5.82e+06 M⁻¹ s⁻¹
B15: NVS4 heavy chain variant D108N (Fab, V domains shown)
VH: B2 VH with S31D, Q55D, N56D, N57D
VL: B2 VL
notes: CDR variant of NVS4

Kd: 0.00668 nM
koff: 4.54e-05 s⁻¹
kon: 6.8e+06 M⁻¹ s⁻¹
B18: NVS4 heavy chain variant D108Q (Fab, V domains shown)
VH: B2 VH with S31D, Q55D, N56D, N57D, N108Q
VL: B2 VL
notes: CDR variant of NVS4

Kd: 0.00765 nM
koff: 4.84e-05 s⁻¹
kon: 6.33e+06 M⁻¹ s⁻¹
B20: NVS4 heavy chain variant D56N (Fab, V domains shown)
VH: B2 VH with S31D, Q55D, N57D, N108D
VL: B2 VL
notes: CDR variant of NVS4

Kd: 0.00282 nM
koff: 1.3e-05 s⁻¹
kon: 4.6e+06 M⁻¹ s⁻¹
B22: NVS4 light chain variant T53K (Fab, V domains shown)
VH: B2 VH with S31D, Q55D, N56D, N57D, N108D
VL: B2 VL with T53K
notes: CDR variant of NVS4

Kd: 0.00244 nM
koff: 1.37e-05 s⁻¹
kon: 5.6e+06 M⁻¹ s⁻¹
B23: NVS4 light chain variant T96R (Fab, V domains shown)
VH: B2 VH with S31D, Q55D, N56D, N57D, N108D
VL: B2 VL with T96R
notes: CDR variant of NVS4
